Sequences and labels used below:
B1: HDV Ribozyme (parent)
chain: GGCCGGCAUGGUCCCAGCCUCCUCGCUGGCGCCGGCUGGGCAACAUUCCGAGGGGACCGUCCCCUCGGUAAUGGCGAAUGGGACCCA

Variants of B1 are the subject of this data set. Briefly: self-cleavage, relative activity (ratio to wild type); higher = more cleavage; co-transcriptional.
Turning to U12G U47G, the self-cleavage came to 1.21. For the variant U12G U47C, the self-cleavage was determined as 0.437. With U12G C18U the figure was 0.361; with U12G C18A, 0.151; with U12G C18G, 0. With U12C G35U, the self-cleavage stood at 0. With U12C G35A the figure was 0.0723. Turning to U12G G55C, the self-cleavage came to 0.95.

Turning to U12C C14G, the self-cleavage was determined as 0.229. For U12C C14U the value was 0.277; for U12C C14A, 0.18; for C13A U27A, 0.831. U12C C57U: the self-cleavage came out at 0.293. For the variant U12C C75U, the self-cleavage stood at 0.104. For U12C C75A the value was 0.166. U12C C75G: the self-cleavage was 0.166. With U12C G76U the figure was 0.489; with U12G G35C, 0.151; with U12G G35U, 0.104. On to U12G G25C, for which the self-cleavage was determined as 0.119. For C13A C22G the value was 0.026.

For C13A C22A, the self-cleavage came to 0.0287. For C13A G80A, the self-cleavage came out at 0.106. For C13A G80C, the self-cleavage came to 0.125.

On to U12C G39A, for which the self-cleavage was 0.106. For U12C G39C the value was 0; for U12C U47A, 0.289; for U12C G38A, 0.0875. For the variant U12C G38C, the self-cleavage came out at 0.0475.

As to C13A A70U, the self-cleavage amounted to 0.0405. With C13A A70C the figure was 0.285.

C13A C44A: the self-cleavage was 0.119.

Take C13A C44U: the self-cleavage stood at 0.0652. As for C13A C44G, the self-cleavage was 0.

Turning to C13A C64G, the self-cleavage turned out to be 0.19. For C13A C64U the value was 0.242; for U12C G68U, 0.284.

Regarding C13A U72C, the self-cleavage was 0.0573. For C13A U72A the value was 0; for C13A U72G, 0.0639; for C13A A43C, 0.135. For U12G C48U the value was 1.2; for U12G C48A, 0.831. Regarding C13A G73C, the self-cleavage amounted to 0.0767. C13A G73A: the self-cleavage is 0.0863. C13A G73U: the self-cleavage was 0.0615. In the case of U12G A45C, the self-cleavage was found to be 0.399. With C13A A42C the figure was 0.0594; with C13A C33U, 0.369. With C13A C33A the figure was 0.0396; with U12C G54U, 0.415; with U12G G52U, 0.617. Regarding U12G A43C, the self-cleavage came to 0.431. As to U12G U60C, the self-cleavage turned out to be 0.895. For U12G U60G, the self-cleavage worked out at 0.831.

With U12G G34U, the self-cleavage is 0.266.

Consider C13A G54C, for which the self-cleavage was determined as 0.283. In the case of C13A G54A, the self-cleavage came out at 0.117.

As for U12C C66U, the self-cleavage is 0.655. Turning to U12C C66A, the self-cleavage is 0.332. In the case of U12C U27C, the self-cleavage turned out to be 0.222. With U12C U27A the figure was 0.506. For U12G G54A the value was 0.831.

Consider U12G G54U, for which the self-cleavage came to 0.793. Consider U12C G52A, for which the self-cleavage was 0.554.

Take U12C G52U: the self-cleavage is 0.35. For the variant C13A, the self-cleavage came out at 0.21.

C13G: the self-cleavage was 0.078.

In the case of U12G C84U, the self-cleavage turned out to be 0.692. With U12G C84A the figure was 0.665. In the case of C13A C24A, the self-cleavage amounted to 0.

Regarding C13A C24G, the self-cleavage worked out at 0.117. For U12G A70C the value was 0.462; for U12G G50U, 0.87. Take U12G G50C: the self-cleavage was 0.727.

For the variant C13A A87U, the self-cleavage came to 0.157. With C13A A87C, the self-cleavage was found to be 0.222.

As for U12G G39A, the self-cleavage turned out to be 0.403. With U12G G39C the figure was 0.208; with U12C A87G, 0.369. For U12C A87C the value was 0.479. With U12G A78G the figure was 0.612; with U12G A78C, 0.0594. Consider U12G C30U, for which the self-cleavage was 0.375.

Take U12G C30A: the self-cleavage turned out to be 0.332. As to C13A G55C, the self-cleavage turned out to be 0.143. Consider C13A G55U, for which the self-cleavage came out at 0.0707. As to C13A G55A, the self-cleavage came out at 0.222. With U12G G76C the figure was 1.2; with U12G G76U, 1.17; with U12G G76A, 0.917.

In the case of C13A U46C, the self-cleavage came out at 0.203.

For C13A U46A, the self-cleavage was determined as 0.0346. C13A C86A: the self-cleavage was determined as 0.492. With C13A C86G the figure was 0.178; with U12C C62G, 0.123; with U12C C86G, 0.104. C13A C15U: the self-cleavage came out at 0.185. For C13A C15A the value was 0; for C13A C85G, 0.0396; for C13A C85U, 0.141. Turning to U12G U79C, the self-cleavage was 0.243. With U12G C13U the figure was 0.931; with U12G C13G, 0.639.

For the variant U12G C64A, the self-cleavage turned out to be 0.594. For U12C C32G the value was 0; for U12C C32U, 0.135; for U12C G81A, 0.095. In the case of U12C G81U, the self-cleavage worked out at 0. As to U12C G55U, the self-cleavage came out at 0.59. As to U12C G55A, the self-cleavage was 0.237. Take U12G C44G: the self-cleavage came to 0.475.

Turning to U12G C44A, the self-cleavage was found to be 0.604. With C13A G76U the figure was 0.317; with U12C U37G, 0.332; with U12C U37C, 0.35.

Consider U12C U37A, for which the self-cleavage worked out at 0.147. For U12G G80U the value was 0.534. With U12C G73A the figure was 0.289. For U12C U65A the value was 0.489. Consider U12C U65C, for which the self-cleavage was determined as 0.492. With U12C U65G the figure was 0.323; with U12G A87C, 0.749. For U12G A87G the value was 0.723; for U12C U20C, 0; for U12C U20G, 0.0831. For U12G C57A the value was 0.985; for U12G C57G, 0.931; for U12G C36U, 0.415. With U12G C36A, the self-cleavage was found to be 0.156.

Turning to U12C G74A, the self-cleavage was 0.0519. As to U12C G74C, the self-cleavage worked out at 0. For U12G G31C the value was 0.138; for U12G G31U, 0.277; for U12G C75U, 0. Turning to U12C G34U, the self-cleavage turned out to be 0.0396.

For the variant U12C G34A, the self-cleavage was 0.0692. For C13A C18G the value was 0.0773; for C13A C18U, 0.0604; for U12G A83C, 1.17. Consider C13A G68A, for which the self-cleavage was determined as 0.187. For C13A G68C the value was 0.151; for U12G A56G, 0.767; for U12G A56U, 1.22. For U12G U69G the value was 0.831. Turning to C13A C57G, the self-cleavage is 0.19.

Regarding U12G C19U, the self-cleavage was found to be 0.0378. With U12G C19G the figure was 0; with U12G C19A, 0.161. With U12G C14A the figure was 0.356; with U12G C14G, 0; with C13A G40A, 0.233. For C13A G40C the value was 0. Take C13A G40U: the self-cleavage is 0.0326. As for C13A G34U, the self-cleavage stood at 0. As to C13A G34C, the self-cleavage turned out to be 0.151. For the variant C13A G34A, the self-cleavage is 0.131. Regarding U12G G28A, the self-cleavage is 0. With U12G G28U the figure was 0; with U12C U23C, 0.755. Consider U12C U23G, for which the self-cleavage was determined as 0.208.

In the case of U12C C15G, the self-cleavage worked out at 0.147.

In the case of U12C C15A, the self-cleavage stood at 0.482.

As to U12C C15U, the self-cleavage was determined as 0.147. Turning to C13A U79C, the self-cleavage turned out to be 0.0692. For U12C G31A the value was 0.237. With U12C G31C the figure was 0.123.
